Five molecules from PMC8746315, “Biophysical Characterization of Novel DNA Aptamers against K103N/Y181C Double Mutant HIV-1 Reverse Transcriptase” can be followed below.

For this data set, the target named is HIV-1 reverse transcriptase, wild type (HIV-1, UniProt P04585;P04585 588-1147;588-1027). Nature of the data set: SPR; SPR: 10 mM HEPES pH 7.5, 150 mM NaCl, 80 mM KCl, 5 mM MgCl2, 25 C, RT on NTA chip; NMR: 10 mM Tris-d11 pD 7.6, 200 mM KCl, 1.5 mM sodium azide, 4 mM MgCl2; inhibition assay 25 C, 30 min. The note with it: protein: recombinant; (NTA chip capture); copies: 1;1.
With CCAGAAAGCTCGGGTTCGTTCCACAAATAACACTTGCCC (ssDNA) [KY28], the dissociation constant Kd is 1.02 µM.

Take AGTAAGACTATAATTCAGTCCTCATTGATTTCCCACATCG (ssDNA) [KY1]: the Kd came to 2.17 µM.

Regarding GTGCAAGCGTACGAAGGGATAATTCACTCTAGGAGCTTCT (ssDNA) [KY44], the Kd was found to be 2.15 µM. In the case of CACACTAAGGGAGTAGGAATCCGCGGTCACAATGTTCCTG (ssDNA) [KY22] it was 1.04 µM; in that of CTATAGGGGGTTGCATCTTAGACATTAATGTTCATTTACA (ssDNA) [KY23], 0.0552 µM.

The term Kd denotes a measure of binding affinity in units of concentration.
